Data as given in publication doi:10.1101/276808 (bioRxiv, 2018).
“And” between values parts separate entries of the source, which are not always exact repeats. Equal entries are not always repeated.

Biological target: the molecule itself
Assay: native gel or EMSA

B1: Lrp (natural protein, Escherichia coli, UniProt P0ACJ0 1-164, looked up)
chain: MVDSKKRPGKDLDRIDRNILNELQKDGRISNVELSKRVGLSPTPCLERVRRLERQGFIQGYTALLNPHYLDASLLVFVEITLNRGAPDVFEQFNTAVQKLEEIQECHLVSGDFDYLLKTRVPDMSAYRKLLGETLLRLPGVNDTRTYVVMEEVKQSNRLVIKTR
  stoichiometry N: 8 and 16
